# Laboratory results as given in patent publication US10919943B2, “Mutant proteins enabling agrochemical control of plant gene expression” (The Regents of the University of California, priority 2016, dated 2021).
# Key:
# HAB1^!-2 = test: Yeast two hybrid, mandipropamid-promoted interaction of PYR1 variants with HAB1^!-2; format: cell-based
# Text: To engineer orthogonal mandipropamid responsiveness, we introduced the PYR1^! mutation into the PYR1^MANDI receptor to create a septuple mutant called PYR1^!-MANDI (PYR1^Y58H;K59R;V81I;F108A;S122G;F159L;T162D). This mutant interacts with HAB1^! and HAB^!-2 in response to low μM mandipropamid in yeast two-hybrid assays, but is ˜100-fold less sensitive than the PYR1^MANDI/HAB1 interaction, which responds to concentrations in the low nM range (FIG. 3).
# To improve sensitivity, we mutagenized ligand contacting and interface residues in PYR1^!-MANDI using NNK primers, pooled the mutant libraries, and used the mutagenized receptors in selection experiments using to identify enhancer mutations. The NNK mutagenesis screen targeted the following residues: P55, H60, F61, I62, K63, V83, S85, G86, L87, P88, A89, S92, E94, I110, H115, R116, L117, Y120, E141, P148, G150, N151, D154, D155, T156, M158, A160, V163, V164, L166, N167, and K170. […] Since M158 and A160 flank the […] mutation present in PYR1^MANDI, we inferred that the closely located orthogonalizing T162D mutation in PYR1^!-MANDI may have reduced mandipropamid sensitivity by altering the local structure of the C-terminal α3-helix, which participates in ligand-induced conformational changes needed for PP2C binding (Nishimura et al., 2009). We therefore simultaneously mutagenized positions M158, F159 and A160 using a primer with degenerate NNK codons at all three positions. F159 was included in this mutagenesis because we have previously observed that multiple substitutions at F159 (A,C,I,L,M,T, or V) are permissive for mandipropamid responsiveness (S. Y. Park et al., n.d.), and sought to test whether residues other than leucine at position 159 might function better in the context of simultaneous changes to both A160 and M158. The mutagenic primer was used in QuickChange mutagenesis reactions using pBD-PYR1^!-MANDI template, and a library of ˜12,000 clones was generated. Plasmid DNA for the library was prepared from pooled E. coli transformants, and subsequently transformed into S. cerevisiae strain MAV99 harboring pACT-HAB1^!-2. ˜20,000 yeast transformants were generated, pooled, and plated onto SD(-Leu,-Trp) agar media supplemented with 0.1% fluorotic acid (to select against mutants that interact in a ligand-independent fashion). The surviving cells were collected and plated onto SD(Leu,-Trp,-Ura) plates supplemented with 50 nM mandipropamid. The colonies displaying the best uracil-independent growth were isolated and retested on different mandipropamid concentrations and then stained in β-galactosidase assays to rank their relative strength.
# HAB1 = test: In vitro PP2C assay, ligand-promoted inhibition of GST-HAB1 by receptor; format: biochemical, Arabidopsis; settings: FIG. 9
# Text: In the presence of ABA, wild type PYR1 binds to HAB1 and docks into its active site, which inhibits its enzymatic activity by blocking access of substrates. To characterize the orthogonal PYR1^! and HAB1^! interaction biochemically, we produced recombinant forms of each protein in E. coli, along with the wild type form, and tested the wild type and orthogonal mutant for their ability to inhibit HAB1 and HAB1^! activities in vitro. We cloned PYR1^! into pET28 to generate 6×-His tagged receptor and cloned HAB1^! into pGEX-4T-1 to create a GST-fusion protein. The previously constructed (S.-Y. Park et al., 2009) wild type 6×-His-PYR1 and GST-HAB1 constructs were used for producing recombinant wild type proteins. The 6×-His-tagged receptors and GST-tagged PP2Cs were expressed and purified as previously described. Briefly, the proteins were expressed in BL21 [DE3]pLysS E. coli host cells at 18° C. overnight. Fusion proteins were purified from sonicated lysates using Ni-NTA agarose (Qiagen, USA) or Pierce™ Glutathione Agarose (Thermo Scientific) according to the manufacturer's instructions. PP2C assays were conducted in 96-well polystyrene flat-bottom microtitre plates (Greiner). […] The plates were read using a Victor 2 plate reader (PerkinElmer) (355 nm excitation, 460 nm emission) and assays run in triplicate. The PP2C activity values reported are expressed as percent control values, which were calculated by including the carrier solvent (1% DMSO) and the specific receptor assayed, but no ligand. […]
# According to our current understanding, in order for ABA signaling to be initiated in vivo, PP2C activity must be inhibited to enable accumulation of active SnRK2 kinases. […] 4-methylumbeliferyl phosphate was added (1 mM final concentration) was added to the reactions after 30 minutes equilibration and plates were read by fluorimetry. The PP2C activity values reported are expressed as percent control values, which was calculated by including the carrier solvent (1% DMSO) and the specific receptor assayed, but no ligand.
molecule,measurement,setting,value
"PYR1*^-MANDI: PYR1 mutant with 9 mutations, most sensitive to mandipropamid (protein, listed as Arabidopsis thaliana) MPSELTPEERSELKNSIAEFHTYQLDPGSCSSLHAQRIHAPPELVWSIVRRFDKPQTHRHFIKSCSVEQNFEMRVGCTRDIIVISGLPANTSTERLDILDDERRVTGASIIGGEHRLTNYKGVTTVHRFEKENRIWTVVLESYVVDMPEGNSEDDTRIVVDDVVKLNLQKLATVAEAMARNSGDGSGSQVT",mandipropamid concentration to which the interaction responds,"HAB1^!-2; FIG. 3, FIG. 4",nM levels
same,relative mandipropamid sensitivity among selected mutants,HAB1^!-2; β-galactosidase assays on different mandipropamid concentrations,most sensitive mutant
same,inhibition of HAB1 enzymatic activity,HAB1; in response to ABA,does not inhibit
same,inhibition of wild type HAB1 enzymatic activity,"HAB1; in response to mandipropamid, 100 nM receptor, 50 nM GST-HAB1",does not substantially inhibit
